Experiments:
[1] = target: full Ska1 complex (Rama1/Ska1/Ska2) (human) (UniProt Q96BD8); test: SEC + other: sucrose gradient sedimentation
[2] = target: microtubules (polymerized tubulin) (UniProt Q6B856); test: co-sedimentation

Sequence of full Ska1 complex (Rama1/Ska1/Ska2) (Q96BD8 whole entry): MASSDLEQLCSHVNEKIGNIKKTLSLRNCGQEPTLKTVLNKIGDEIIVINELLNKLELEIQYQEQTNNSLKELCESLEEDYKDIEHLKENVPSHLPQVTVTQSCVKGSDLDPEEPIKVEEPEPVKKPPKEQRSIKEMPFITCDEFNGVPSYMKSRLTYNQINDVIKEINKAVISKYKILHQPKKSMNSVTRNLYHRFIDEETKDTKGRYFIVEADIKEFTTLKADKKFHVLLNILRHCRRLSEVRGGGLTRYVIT
Sequence of full Ska1 complex (Rama1/Ska1/Ska2) (Q8WVK7 whole entry): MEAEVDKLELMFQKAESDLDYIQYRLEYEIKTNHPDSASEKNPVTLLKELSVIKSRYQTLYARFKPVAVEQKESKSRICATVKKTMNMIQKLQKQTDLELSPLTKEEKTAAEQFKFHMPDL
Sequence of full Ska1 complex (Rama1/Ska1/Ska2) (Q8IX90 whole entry): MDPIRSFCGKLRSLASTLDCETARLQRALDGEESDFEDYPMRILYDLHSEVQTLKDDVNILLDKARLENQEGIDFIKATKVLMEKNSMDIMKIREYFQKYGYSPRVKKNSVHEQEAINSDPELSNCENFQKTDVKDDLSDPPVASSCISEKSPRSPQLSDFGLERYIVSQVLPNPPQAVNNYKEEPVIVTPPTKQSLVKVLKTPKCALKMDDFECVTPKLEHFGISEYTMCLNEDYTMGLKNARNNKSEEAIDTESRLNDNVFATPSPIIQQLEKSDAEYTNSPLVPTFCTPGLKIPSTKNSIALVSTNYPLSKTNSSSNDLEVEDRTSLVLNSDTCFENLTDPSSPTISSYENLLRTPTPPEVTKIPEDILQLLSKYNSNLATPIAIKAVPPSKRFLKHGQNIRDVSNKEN

## full Ska1 complex (Rama1/Ska1/Ska2) (from UniProt Q96BD8 1-255; Q8WVK7 1-121; Q8IX90 1-412)
[1]
  stoichiometry N: 2
[2]
  stoichiometry N (per tubulin dimer): 1

From paper PMC2746561
